Literature values as cited in article PMC6155283.
“And” between values parts separate entries of the source, which are not always exact repeats. Equal entries are not always repeated.

Target: GRα (Homo sapiens) (UniProt P04150)

GRα (from UniProt P04150)
Kd: 7.4 µM and 3 µM
